What is called koff is the rate constant with which the complex falls apart. For orientation: kon means the second-order rate constant of association.

Assay [1] addresses Recombinant gp120 protein from HIV-1 strain IIIB (HIV-1 strain IIIB) (UniProt P04578). The experiment in a line: SPR; gp120 (115 RUs) and gp41 (45 RUs) amine-coupled on a CM4 chip; lectins as analytes (two-fold dilutions, 0-20 nM HHA, 0-4000 nM Ld WCFS1, 0-1000 nM Ld CMPG5300); 1:1 binding model, apparent KD; 25 °C, Biacore T200, HBS-P pH 7.4 (10 mM HEPES, 150 mM NaCl, 0.05% P20) with 10 mM CaCl2.

Assay [2] deals with Recombinant gp41 protein from HIV-1 (HXB2 strain) (HIV-1 (HXB2 strain)) (UniProt P04578). The description is as above.
Assay [3] concerns the target Recombinant gp120 protein from HIV-1 strain IIIB (HIV-1 strain IIIB) (UniProt P04578).

Regarding “Hippeastrum hybrid (amaryllis) lectin (HHA) (natural protein)”, in assay [1], the Kd turned out to be 1.32 nM, the dissociation rate constant (koff) came out at 0.00219 s⁻¹ and the on-rate (kon) turned out to be 1.66e+06 M⁻¹ s⁻¹. In assay [2], the Kd is 0.836 nM, the koff was 0.00229 s⁻¹ and the kon amounted to 2.75e+06 M⁻¹ s⁻¹.

Consider “Lectin domain of Msa (Lp_1229) of Lactobacillus plantarum WCFS1 (from UniProt F9UN23 1-1010) (domain or fragment)”, for which, in assay [1], the Kd amounted to 6260 nM, the off-rate constant (koff) worked out at 0.0164 s⁻¹ and the kon is 2620 M⁻¹ s⁻¹. For the same substance, in assay [2], the Kd amounted to 3300 nM, the dissociation rate constant (koff) was determined as 0.0236 s⁻¹ and the kon came to 7150 M⁻¹ s⁻¹.

For the substance “Lectin domain of Msl (Cmpg5300.05_29) of Lactobacillus plantarum CMPG5300 (domain or fragment)”, the inhibition of HIV-1 infection in human CD4+ T-lymphocytic C8166 cell and Raji DCSIGN cultures (data not shown) in assay [3] was more than 200 µg/mL. Further, in assay [1], the Kd turned out to be 1850 nM, the koff stood at 0.0564 s⁻¹ and the on-rate constant (kon) worked out at 30500 M⁻¹ s⁻¹. Also, in assay [2], the Kd is 1620 nM, the dissociation rate constant (koff) came to 0.0288 s⁻¹ and the kon turned out to be 22900 M⁻¹ s⁻¹.

The values above are taken from PMC5112522.
